Measured values from patent US20180333477A1.

Target: RSV line 19 F protein with I557V, as expressed by vaccine candidate OE4 (respiratory syncytial virus strain line 19) (UniProt P12568)
Assay: MPE8 binding to virus stocks kept at 4 C over 8 days

For Pre-F-specific mAb MPE8 (antibody), the pre-F antigen level (MPE8 binding) relative to A2 was over 2 fold.
